The source of these data is PMC6468676, “The Protein Tyrosine Phosphatase H1 PTPH1 Supports Proliferation of Keratinocytes and is a Target of the Human Papillomavirus Type 8 E6 Oncogene” (Cells, 2019).

The assay addresses T1, FLAG-tagged HPV8E6 (E6 oncoprotein of human papillomavirus type 8), wild type (human papillomavirus type 8, UniProt P06428 1-155).
T1 sequence: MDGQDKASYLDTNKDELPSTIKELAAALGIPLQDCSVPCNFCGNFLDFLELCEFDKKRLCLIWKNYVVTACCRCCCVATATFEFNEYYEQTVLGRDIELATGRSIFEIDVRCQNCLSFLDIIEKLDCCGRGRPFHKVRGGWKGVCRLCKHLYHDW
In words: cell-based or functional assay.

B1: Myc-tagged protein tyrosine phosphatase H1 (PTPH1), full length (enzyme, UniProt P26045 1-913, looked up)
chain: MTSRLRALGGRINNIRTSELPKEKTRSEVICSIHFLDGVVQTFKVTKQDTGQVLLDMVHNHLGVTEKEYFGLQHDDDSVDSPRWLEASKAIRKQLKGGFPCTLHFRVRFFIPDPNTLQQEQTRHLYFLQLKMDICEGRLTCPLNSAVVLASYAVQSHFGDYNSSIHHPGYLSDSHFIPDQNEDFLTKVESLHEQHSGLKQSEAESCYINIARTLDFYGVELHSGRDLHNLDLMIGIASAGVAVYRKYICTSFYPWVNILKISFKRKKFFIHQRQKQAESREHIVAFNMLNYRSCKNLWKSCVEHHTFFQAKKLLPQEKNVLSQYWTMGSRNTKKSVNNQYCKKVIGGMVWNPAMRRSLSVEHLETKSLPSRSPPITPNWRSPRLRHEIRKPRHSSADNLANEMTYITETEDVFYTYKGSLAPQDSDSEVSQNRSPHQESLSENNPAQSYLTQKSSSSVSPSSNAPGSCSPDGVDQQLLDDFHRVTKGGSTEDASQYYCDKNDNGDSYLVLIRITPDEDGKFGFNLKGGVDQKMPLVVSRINPESPADTCIPKLNEGDQIVLINGRDISEHTHDQVVMFIKASRESHSRELALVIRRRAVRSFADFKSEDELNQLFPEAIFPMCPEGGDTLEGSMAQLKKGLESGTVLIQFEQLYRKKPGLAITFAKLPQNLDKNRYKDVLPYDTTRVLLQGNEDYINASYVNMEIPAANLVNKYIATQGPLPHTCAQFWQVVWDQKLSLIVMLTTLTERGRTKCHQYWPDPPDVMNHGGFHIQCQSEDCTIAYVSREMLVTNTQTGEEHTVTHLQYVAWPDHGVPDDSSDFLEFVNYVRSLRVDSEPVLVHCSAGIGRTGVLVTMETAMCLTERNLPIYPLDIVRKMRDQRAMMVQTSSQYKFVCEAILRVYEEGLVQMLDPS
For B1, the “Myc-PTPH1 phosphatase activity (Malachite Green PTP assay on precipitated Myc-PTPH1, two phospho-tyrosine peptides) upon co-expression of HPV8E6 compared to the empty FLAG control vector” value came out at 2.5 fold.
